In patent US20260132217A1 (UNIVERSITE D AIX MARSEILLE, published 2026):

Target: T1, membrane CD146 on cells (U87, U373, HUVEC) (human, UniProt P43121 24-646)
T1 construct: whole, on cells; also called MCAM; membranous CD146
T1 sequence (looked up): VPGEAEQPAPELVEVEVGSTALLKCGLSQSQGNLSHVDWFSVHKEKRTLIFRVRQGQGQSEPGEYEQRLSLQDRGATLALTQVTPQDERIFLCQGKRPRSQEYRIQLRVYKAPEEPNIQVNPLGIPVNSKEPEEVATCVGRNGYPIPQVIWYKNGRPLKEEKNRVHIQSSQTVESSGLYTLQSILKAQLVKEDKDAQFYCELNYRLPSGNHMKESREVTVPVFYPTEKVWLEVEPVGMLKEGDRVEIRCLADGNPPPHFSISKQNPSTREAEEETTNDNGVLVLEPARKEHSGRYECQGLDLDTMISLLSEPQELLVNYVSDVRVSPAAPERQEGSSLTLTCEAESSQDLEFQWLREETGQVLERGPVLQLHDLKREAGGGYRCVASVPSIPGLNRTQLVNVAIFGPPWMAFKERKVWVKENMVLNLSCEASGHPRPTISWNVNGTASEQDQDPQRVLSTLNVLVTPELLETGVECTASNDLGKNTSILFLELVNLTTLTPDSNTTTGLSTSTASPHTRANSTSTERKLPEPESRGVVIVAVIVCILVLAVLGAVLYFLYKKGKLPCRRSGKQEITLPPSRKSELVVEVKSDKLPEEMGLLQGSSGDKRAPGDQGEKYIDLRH
Assay: co-immunoprecipitation with anti-CD146 antibody S-Endo1 from U87 cells (reproduced in U373), western blot
Procedure: Non-confluent U373 cells were used for immunoprecipitation with IgG or anti-CD146 antibody. Western-blotting was then carried out using antibodies directed against VEGFR2, CD146 and integrin subunits αv and β3. Membrane receptor EPcam was used as a negative control (A). U373 cells transfected or not with siRNA targeting β3 integrin were stimulated for 25 min with sCD146 or VEGF, and CD146 was immunoprecipitated before western blotting was done using antibody directed against total phospho-tyrosine (B). Control, CD146-KO, VEGFR2-KO or β3-KO U87 cells were stimulated for 25 min with either sCD146 or VEGF. Lysates were then subjected to western-blotting and membranes were probed with either anti-phospho β3 Y759 (C) or anti-phospho VEGFR2 Y1054 (D). Average of 3 experiments is shown; *P<0.05, **P<0.01, ***p<0.001, experimental vs control.
Briefly, cells were grown on plates and treated as a function of the experiment, then washed in PBS, scraped off the plates and extracted with 300 μl of ice-cold RIPA buffer (150 mM NaCl, 50 mM Tris HCl, pH 7.4, 2.4 mM EDTA, 1% Nonidet P40, 0.5 mM phenylmethylsulfonyl fluoride, supplemented with protease and phosphatase inhibitor (A32959)) for 30 min at 4° C. After centrifugation (12,000 g, 10 min, 4° C.) to eliminate cell debris and nuclei, the Pierce™ BCA protein assay kit was used to quantify protein concentration. […]

- binding result: no binding
B1: EPCAM on cells (U87, U373) (other, human, UniProt P16422 24-314, looked up)
chain: QEECVCENYKLAVNCFVNNNRQCQCTSVGAQNTVICSKLAAKCLVMKAEMNGSKLGRRAKPEGALQNNDGLYDPDCDESGLFKAKQCNGTSMCWCVNTAGVRRTDKDTEITCSERVRTYWIIIELKHKAREKPYDSKSLRTALQKEITTRYQLDPKFITSILYENNVITIDLVQNSSQKTQNDVDIADVAYYFEKDVKGESLFHSKKMDLTVNGEQLDLDPGQTLIYYVDEKAPEFSMQGLKAGVIAVIVVVVIAVVAGIVVLVISRKKRMAKYEKAEIKEMGEMHRELNA
notes: whole, on cells
